Results from patent US20230277632A1, “MODIFIED PlySs2 LYSINS AND ANTIBIOTIC COMBINATIONS FOR USE AGAINST GRAM-POSITIVE BACTERIA” (ContraFect Corporation, priority 2020, published 2023).

Legend:
MSSA strains = experiment: Checkerboard assay: pp296 or CF-301 with oxacillin; assay type: cell-based, Staphylococcus aureus; settings: for FIC: pp296 + oxacillin; for ΣFICmin: with oxacillin
Description: In some embodiments, the present modified lysin polypeptides reduce the minimum inhibitory concentration (MIC) of an antibiotic. Any known method to assess MIC may be used. In some embodiments, a checkerboard assay is used to determine the effect of a lysin on antibiotic concentration. The checkerboard assay is based on a modification of the CLSI method for MIC determination by broth microdilution (See Clinical and Laboratory Standards Institute (CLSI), CLSI. 2015. Methods for Dilution Antimicrobial Susceptibility Tests for Bacteria That Grow Aerobically; Approved Standard-10th Edition. Clinical and Laboratory Standards Institute, Wayne, Pa., which is herein incorporated by reference in its entirety and Ceri et al. 1999. J. Clin. Microbiol. 37: 1771-1776, which is also herein incorporated by reference in its entirety).
Checkerboards are constructed by first preparing columns of e.g., a 96-well polypropylene microtiter plate, wherein each well has the same amount of antibiotic diluted 2-fold along the horizontal axis. […] The lysin and antibiotic dilutions are then combined, so that each column has a constant amount of antibiotic and doubling dilutions of lysin, while each row has a constant amount of lysin and doubling dilutions of antibiotic. Each well thus has a unique combination of lysin and antibiotic. Bacteria are added to the drug combinations at a given concentration. […] Summation fractional inhibitory concentrations (ΣFICs) are calculated for each drug and the minimum ΣFIC value (ΣFICmin) is used to determine the effect of the lysin/antibiotic combination.
The ability of CF-301 or a modified lysin polypeptide pp296 to synergize with oxacillin was assessed using a checkerboard analysis. For the checkerboard assay, a total of 50 μl of Mueller-Hinton broth is distributed into each well of microdilution plates. Then, a first antibiotic of a combination is serially diluted along the ordinate, while a second drug is diluted along the abscissa. An inoculum equal to a 0.5 McFarland turbidity standard is prepared from each bacterial isolate in Mueller-Hinton broth. Each microtiter well is then inoculated with 100 μl of a bacterial inoculum of 5×10^5 CFU/ml, and the plates are incubated at 37° C. for 18 h under aerobic conditions. The resulting checkerboard contains each combination of two antibiotics, with wells that contain the highest concentration of each antibiotic at opposite corners. […] To quantify the interactions between the antibiotics being tested, the FIC index (the combination of antibiotics that produced the greatest change from the individual antibiotic's MIC) value is calculated for each strain and antibiotic combination as follows:
(A/MICA)+(B/MICB)=FICA+FICB=FIC index,
where A and B are the MIC of each agent in combination in a single well, and MICA and MICB are the MIC of each drug when used individually. The combination is considered strongly synergistic when the FIC index is ≤0.5 and synergistic when the FIC index is >0.5-<1.

S. aureus isolates = experiment: MIC determination (broth microdilution) against 8 S. aureus isolates; assay type: cell-based; parameters: MIC pp296 (AST media): unit not given beside the values; settings: for MIC pp296 (mouse serum): 100% ICR mouse serum; for MIC pp296 (human serum): 100% human serum; for MIC pp296 (AST media): caMHB-HSD
Protocol: Suitable methods for assessing the activity of a modified lysin polypeptide as disclosed herein are well known in the art and described in the examples. […] For example, MIC values for a modified lysin polypeptide may be determined against e.g., laboratory Staphylococcus aureus strains, in e.g., Mueller-Hinton broth or Mueller-Hinton broth supplemented with serum, such as horse serum.
The pp296 MICs were determined based on (1) cation-adjusted Mueller-Hinton Broth with 25% horse serum and 0.5 mM DTT (caMHB-HSD); (2) human serum (100% serum); and (3) ICR mice (100% serum). Vancomycin and daptomycin MICs of the isolate strains were determined in accordance with the broth microdilution method as outlined by CLSI. Results of the MIC determination are shown below in Table 2. The bacterial isolates were frozen at −80° C. in skim milk.

B1: pp296: modified PlySs2 lysin, SEQ ID NO: 6: L92W, V104S, V128T, Y137S, Y164K, N184D, S198Q (protein)
chain: MTTVNEALNNVRAQVGSGVSVGNGECYALASWYERMISPDATVGLGAGVGWVSGAIGDTISAKNIGSSYNWQANGWTVSTSGPFKAGQIVTWGATPGNPYGHVSIVEAVDGDRLTILEQNYGGKRYPTRNYYSAASSRQQVVHYITPPGTVAQSAPNLAGSRSKRETGTMTVTVDALNVRRAPDTSGEIVAVYKRGEQFDYDTAIIDVNGYAWVSYIGGSGKRNYVATGATKDGKRFGNAWGTFK
**Q.** With B1 as the molecule, how does the “Single agent MICs” value (MSSA strains; MSSA ATCC 29213) read?
**A.** The value was 1 µg/mL.

**Q.** And the “Single agent MICs” value (MSSA strains; MSSA JMI-6625)?
**A.** The value was 1 µg/mL.

**Q.** What about the “Single agent MICs” value (MSSA strains; MSSA JMI-6885) of the same molecule?
**A.** Its value is 1 µg/mL.

**Q.** And the “Single agent MICs” value (MSSA strains; MSSA JMI-6886)?
**A.** Its value is 1 µg/mL.

**Q.** And the “Single agent MICs” value (MSSA strains; MSSA JMI-7054)?
**A.** Its value is 1 µg/mL.

**Q.** And the “Single agent MICs” value (MSSA strains; MSSA JMI-7160)?
**A.** Its value is 1 µg/mL.

**Q.** What about the “Single agent MICs” value (MSSA strains; MSSA JMI-38739) of the same molecule?
**A.** The value was 1 µg/mL.

**Q.** What about the “Single agent MICs” value (MSSA strains; MSSA JMI-38986) of the same molecule?
**A.** Its value is 1 µg/mL.

**Q.** And the “Single agent MICs” value (MSSA strains; MSSA JMI-40671)?
**A.** The value was 1 µg/mL.

**Q.** And the “Single agent MICs” value (MSSA strains; MSSA JMI-46142)?
**A.** The value was 1 µg/mL.

**Q.** And the FIC (MSSA strains; MSSA ATCC 29213)?
**A.** The FIC was 0.25.

**Q.** What about the FIC (MSSA strains; MSSA JMI-6625) of the same molecule?
**A.** The FIC was 0.0625.

**Q.** What about the FIC (MSSA strains; MSSA JMI-6885) of the same molecule?
**A.** Its FIC is 0.25.

**Q.** And the FIC (MSSA strains; MSSA JMI-6886)?
**A.** The FIC was 0.25.

**Q.** And the FIC (MSSA strains; MSSA JMI-7054)?
**A.** Its FIC is 0.25.

**Q.** And the FIC (MSSA strains; MSSA JMI-7160)?
**A.** The FIC was 0.25.

**Q.** And the FIC (MSSA strains; MSSA JMI-38739)?
**A.** The FIC was 0.25.

**Q.** What about the FIC (MSSA strains; MSSA JMI-38986) of the same molecule?
**A.** The FIC was 0.125.

**Q.** And the FIC (MSSA strains; MSSA JMI-40671)?
**A.** The FIC was 0.25.

**Q.** What about the FIC (MSSA strains; MSSA JMI-46142) of the same molecule?
**A.** The FIC was 0.25.

**Q.** And the ΣFICmin (MSSA strains; MSSA ATCC 29213)?
**A.** Its ΣFICmin is 0.5.

**Q.** What about the ΣFICmin (MSSA strains; MSSA JMI-6625) of the same molecule?
**A.** Its ΣFICmin is 0.3125.

**Q.** What about the ΣFICmin (MSSA strains; MSSA JMI-6885) of the same molecule?
**A.** The ΣFICmin was 0.375.

**Q.** What about the ΣFICmin (MSSA strains; MSSA JMI-6886) of the same molecule?
**A.** The ΣFICmin was 0.5.

**Q.** What about the ΣFICmin (MSSA strains; MSSA JMI-7054) of the same molecule?
**A.** Its ΣFICmin is 0.5.

**Q.** What about the ΣFICmin (MSSA strains; MSSA JMI-7160) of the same molecule?
**A.** The ΣFICmin was 0.5.

**Q.** And the ΣFICmin (MSSA strains; MSSA JMI-38739)?
**A.** The ΣFICmin was 0.5.

**Q.** What about the ΣFICmin (MSSA strains; MSSA JMI-38986) of the same molecule?
**A.** The ΣFICmin was 0.375.

**Q.** And the ΣFICmin (MSSA strains; MSSA JMI-40671)?
**A.** Its ΣFICmin is 0.375.

**Q.** What about the ΣFICmin (MSSA strains; MSSA JMI-46142) of the same molecule?
**A.** The ΣFICmin was 0.5.

**Q.** And the “MIC pp296 (mouse serum)” value (S. aureus isolates; ATCC 29213 MSSA)?
**A.** The value was 256.

**Q.** And the “MIC pp296 (mouse serum)” value (S. aureus isolates; CAIRD426 MRSA)?
**A.** The value was 32.

**Q.** And the “MIC pp296 (mouse serum)” value (S. aureus isolates; HPV107 MRSA)?
**A.** The value was 128.

**Q.** What about the “MIC pp296 (mouse serum)” value (S. aureus isolates; JMI227 MRSA) of the same molecule?
**A.** Its value is 64.

**Q.** And the “MIC pp296 (mouse serum)” value (S. aureus isolates; JMI4789 MRSA)?
**A.** Its value is 256.

**Q.** What about the “MIC pp296 (mouse serum)” value (S. aureus isolates; NRS100 (COL) MRSA) of the same molecule?
**A.** Its value is 32.

**Q.** What about the “MIC pp296 (mouse serum)” value (S. aureus isolates; NRS123 (MW2) MRSA) of the same molecule?
**A.** Its value is 256.

**Q.** And the “MIC pp296 (mouse serum)” value (S. aureus isolates; NRS271 MRSA/LRSA)?
**A.** Its value is 64.

**Q.** What about the “MIC pp296 (human serum)” value (S. aureus isolates; ATCC 29213 MSSA) of the same molecule?
**A.** Its value is 1.

**Q.** And the “MIC pp296 (human serum)” value (S. aureus isolates; CAIRD426 MRSA)?
**A.** Its value is 1.

**Q.** What about the “MIC pp296 (human serum)” value (S. aureus isolates; HPV107 MRSA) of the same molecule?
**A.** The value was 1.

**Q.** What about the “MIC pp296 (human serum)” value (S. aureus isolates; JMI227 MRSA) of the same molecule?
**A.** The value was 1.

**Q.** And the “MIC pp296 (human serum)” value (S. aureus isolates; JMI4789 MRSA)?
**A.** Its value is 1.

**Q.** What about the “MIC pp296 (human serum)” value (S. aureus isolates; NRS100 (COL) MRSA) of the same molecule?
**A.** The value was 1.

**Q.** What about the “MIC pp296 (human serum)” value (S. aureus isolates; NRS123 (MW2) MRSA) of the same molecule?
**A.** Its value is 1.

**Q.** And the “MIC pp296 (human serum)” value (S. aureus isolates; NRS271 MRSA/LRSA)?
**A.** Its value is 0.5.

**Q.** And the “MIC pp296 (AST media)” value (S. aureus isolates; ATCC 29213 MSSA)?
**A.** The value was 1.

**Q.** And the “MIC pp296 (AST media)” value (S. aureus isolates; CAIRD426 MRSA)?
**A.** The value was 1.

**Q.** What about the “MIC pp296 (AST media)” value (S. aureus isolates; HPV107 MRSA) of the same molecule?
**A.** Its value is 1.

**Q.** And the “MIC pp296 (AST media)” value (S. aureus isolates; JMI227 MRSA)?
**A.** The value was 0.5.

**Q.** And the “MIC pp296 (AST media)” value (S. aureus isolates; JMI4789 MRSA)?
**A.** The value was 1.

**Q.** What about the “MIC pp296 (AST media)” value (S. aureus isolates; NRS100 (COL) MRSA) of the same molecule?
**A.** The value was 1.

**Q.** What about the “MIC pp296 (AST media)” value (S. aureus isolates; NRS123 (MW2) MRSA) of the same molecule?
**A.** The value was 1.

**Q.** And the “MIC pp296 (AST media)” value (S. aureus isolates; NRS271 MRSA/LRSA)?
**A.** Its value is 1.
